In paper PMC4725365:
One block for each substance: values may come before it.

Tests used:
[1] = biological target: A1-MAGE-A3 (HLA-A*0101 with the MAGE-A3 peptide ), biotinylated; experiment: SPR
[2] = biological target: A1-MAGE-A3 (HLA-A*0101 with the MAGE-A3 peptide …), biotinylated; experiment: SPR (single cycle kinetics); conditions: 25 °C; approximately 150 RUs of biotinylated pMHC immobilised onto a CM5 amine chip
[3] = biological target: A1-Titin (HLA-A*0101 with the Titin peptide ), biotinylated; experiment: SPR
[4] = biological target: A1-Titin (HLA-A*0101 with the Titin peptide …), biotinylated; experiment: SPR (single cycle kinetics); conditions: 25 °C; approximately 150 RUs of biotinylated pMHC immobilised onto a CM5 amine chip

Substance: MAG-IC3 TCR mutant N97D (β chain)
Kd [1]: 99.3 nM

Substance: MAG-IC3 TCR mutant F51W (β chain)
Kd [1]: 8.4 nM

Substance: MAG-IC3 TCR N97Q
Kd [2]: 59 nM

Substance: MAG-IC3 TCR mutant F51T (β chain)
Kd [3]: 97.6 nM

Substance: MAG-IC3 TCR F51T
Kd [2]: 3.2 nM | other: t1/2 [2]: 66 min

Substance: MAG-IC3 TCR F51W
Kd [4]: 172 nM | other: t1/2 [4]: 1.5 min | other: t1/2 [2]: 20 min

Substance: MAG-IC3 TCR mutant N97E (β chain)
Kd [1]: 35 nM

Substance: MAG-IC3 TCR mutant R31W (β chain)
Kd [3]: 100 nM | Kd [1]: 6.2 nM

The remaining lines, values ahead:

Kd [4]: 743 nM | other: t1/2 [2]: 14 min
Substance: MAG-IC3 TCR N97E

Kd [4]: 916 nM
Substance: MAG-IC3 TCR N97D

Kd [3]: 601 nM
Substance: MAG-IC3 TCR mutant N97Q (β chain)

Kd [4]: 93 nM | Kd [2]: 13.4 nM
Substance: MAG-IC3 TCR R31L
